According to doi:10.1101/2025.05.01.651538 (2025):

Columns and labels:
[1] = biological target: wild-type unmodified 147bp nucleosome (nucleosome core particle, human histones) (human)
[2] = biological target: wild-type 185bp nucleosome (nucleosome with symmetric flanking DNA, human histones) (human)

Kd [1]: 4 µM | Kd [2]: 3 µM
B1: KDM5A^CAT (KDM5A 1–801, minimal catalytically active construct) (domain or fragment)
chain: MAGVGPGGYAAEFVPPPECPVFEPSWEEFTDPLSFIGRIRPLAEKTGICKIRPPKDWQPPFACEVKSFRFTPRVQRLNELEAMTRVRLDFLDQLAKFWELQGSTLKIPVVERKILDLYALSKIVASKGGFEMVTKEKKWSKVGSRLGYLPGKGTGSLLKSHYERILYPYELFQSGVSLMGVQMPNLDLKEKVEPEVLSTDTQTSPEPGTRMNILPKRTRRVKTQSESGDVSRNTELKKLQIFGAGPKVVGLAMGTKDKEDEVTRRRKVTNRSDAFNMQMRQRKGTLSVNFVDLYVCMFCGRGNNEDKLLLCDGCDDSYHTFCLIPPLPDVPKGDWRCPKCVAEECSKPREAFGFEQAVREYTLQSFGEMADNFKSDYFNMPVHMVPTELVEKEFWRLVSSIEEDVIVEYGADISSKDFGSGFPVKDGRRKILPEEEEYALSGWNLNNMPVLEQSVLAHINVDISGMKVPWLYVGMCFSSFCWHIEDHWSYSINYLHWGEPKTWYGVPSHAAEQLEEVMRELAPELFESQPDLLHQLVTIMNPNVLMEHGVPVYRTNQCAGEFVVTFPRAYHSGFNQGYNFAEAVNFCTADWLPIGRQCVNHYRRLRRHCVFSHEELIFKMAADPECLDVGLAAMVCKELTLMTEEETRLRESVVQMGVLMSEEEVFELVPDDERQCSACRTTCFLSALTCSCNPERLVCLYHPTDLCPCPMQKKCLRYRYPLEDLPSLLYGVKVRAQSYDTWVSRVTEALSANFNHKKDLIELRVMLEDAEDRKYPENDLFRKLRDAVKEAETCASVAQLL
